Assay in all cases: crystal structure
Assay [1] deals with Chaetomium thermophilum Ahp1 C30S (Chaetomium thermophilum).
Assay [2] has the same target. The source holds these as a separate data set.
Assay [3] deals with Chaetomium thermophilum Ahp1, wild type (Chaetomium thermophilum).

Like-named read-outs stand apart in the source and are kept apart here.

Turning to “Chaetomium thermophilum Ahp1 C30S (enzyme)”, the stoichiometry N in assay [1] and in assay [2] was 2 each time.

“Chaetomium thermophilum Ahp1, wild type (enzyme)” gave a stoichiometry N in assay [3] of 2.

The term stoichiometry N denotes a count of units in the complex or per binding partner.

The values are drawn from article PMC9574740.
